In paper PMC8529090 (Computational and Structural Biotechnology Journal, 2021):

B1: recombinant L1CAM ectodomain (L1CAM-ED) (domain or fragment, human, UniProt P32004 20-1120, looked up)
chain: IQIPEEYEGHHVMEPPVITEQSPRRLVVFPTDDISLKCEASGKPEVQFRWTRDGVHFKPKEELGVTVYQSPHSGSFTITGNNSNFAQRFQGIYRCFASNKLGTAMSHEIRLMAEGAPKWPKETVKPVEVEEGESVVLPCNPPPSAEPLRIYWMNSKILHIKQDERVTMGQNGNLYFANVLTSDNHSDYICHAHFPGTRTIIQKEPIDLRVKATNSMIDRKPRLLFPTNSSSHLVALQGQPLVLECIAEGFPTPTIKWLRPSGPMPADRVTYQNHNKTLQLLKVGEEDDGEYRCLAENSLGSARHAYYVTVEAAPYWLHKPQSHLYGPGETARLDCQVQGRPQPEVTWRINGIPVEELAKDQKYRIQRGALILSNVQPSDTMVTQCEARNRHGLLLANAYIYVVQLPAKILTADNQTYMAVQGSTAYLLCKAFGAPVPSVQWLDEDGTTVLQDERFFPYANGTLGIRDLQANDTGRYFCLAANDQNNVTIMANLKVKDATQITQGPRSTIEKKGSRVTFTCQASFDPSLQPSITWRGDGRDLQELGDSDKYFIEDGRLVIHSLDYSDQGNYSCVASTELDVVESRAQLLVVGSPGPVPRLVLSDLHLLTQSQVRVSWSPAEDHNAPIEKYDIEFEDKEMAPEKWYSLGKVPGNQTSTTLKLSPYVHYTFRVTAINKYGPGEPSPVSETVVTPEAAPEKNPVDVKGEGNETTNMVITWKPLRWMDWNAPQVQYRVQWRPQGTRGPWQEQIVSDPFLVVSNTSTFVPYEIKVQAVNSQGKGPEPQVTIGYSGEDYPQAIPELEGIEILNSSAVLVKWRPVDLAQVKGHLRGYNVTYWREGSQRKHSKRHIHKDHVVVPANTTSVILSGLRPYSSYHLEVQAFNGRGSGPASEFTFSTPEGVPGHPEALHLECQSNTSLLLRWQPPLSHNGVLTGYVLSYHPLDEGGKGQLSFNLRDPELRTHNLTDLSPHLRYRFQLQATTKEGPGEAIVREGGTMALSGISDFGNISATAGENYSVVSWVPKEGQCNFRFHILFKALGEEKGGASLSPQYVSYNQSSYTQWDLQPDTDYEIHLFKERMFRHQMAVKTNGTGRVRLPPAGFATE

What was measured:
[1] = molecular target: B1; assay: SPR
SPR = molecular target: the molecule itself; assay: SPR

Binder | percent reduction of the RUmax of L1CAM-ED binding to immobilised L1CAM-ED [1] [%] | Kd (SPR) [nM]
FIPTDGRHFVSQTTG [CNTN2-A peptide] | 20 | 
LKEEEGRITIRGGK [ROBO3-A peptide] | 20 | 
PIPGDSRVVVLPSG [DCC-A peptide] | 20 | 
B1 |  | 17 ± 1.3
